{"source": "patent US20180086823A1", "about": "(FRAUNHOFER GESELLSCHAFT ZUR FOERDERUNG DER ANGEWANDTEN …, published 2018)", "binders": {"B1": {"name": "huMAb-anti-AMA-1.1 (antibody, V domains shown)", "VH": "QVQLQESGPGLVKPSETLSLTCSVSGVSVSSTVFYWGWIRQSPGKGLEWIGSIYYSGSTYYNEALKSRLTLSVETSERQFSLRLSSVTAADTAVYYCARGAINFGGYSGPGTFYFDIWGQGTLITVSS", "VL": "DIQMTQSPSTLSASVGDRVTITCRASQSITTWLAWYQQKPGTAPKLLIYKASILETGVPSRFSGSGSGTDFTLTISSLQPDDFATYYCQQYSTHLFTFGPGTKVDIK", "notes": "also called recombinant human anti AMA-1 antibody"}}, "key": {"[1]": {"target": "T1, recombinant apical membrane antigen 1 (AMA-1) from Plasmodium falciparum 3D7, produced in Pichia pastoris, … (Plasmodium falciparum (strain 3D7), UniProt P22621 25-546)", "T1 construct": "also called native target antigen AMA-1; recombinant AMA-1", "T1 chain": "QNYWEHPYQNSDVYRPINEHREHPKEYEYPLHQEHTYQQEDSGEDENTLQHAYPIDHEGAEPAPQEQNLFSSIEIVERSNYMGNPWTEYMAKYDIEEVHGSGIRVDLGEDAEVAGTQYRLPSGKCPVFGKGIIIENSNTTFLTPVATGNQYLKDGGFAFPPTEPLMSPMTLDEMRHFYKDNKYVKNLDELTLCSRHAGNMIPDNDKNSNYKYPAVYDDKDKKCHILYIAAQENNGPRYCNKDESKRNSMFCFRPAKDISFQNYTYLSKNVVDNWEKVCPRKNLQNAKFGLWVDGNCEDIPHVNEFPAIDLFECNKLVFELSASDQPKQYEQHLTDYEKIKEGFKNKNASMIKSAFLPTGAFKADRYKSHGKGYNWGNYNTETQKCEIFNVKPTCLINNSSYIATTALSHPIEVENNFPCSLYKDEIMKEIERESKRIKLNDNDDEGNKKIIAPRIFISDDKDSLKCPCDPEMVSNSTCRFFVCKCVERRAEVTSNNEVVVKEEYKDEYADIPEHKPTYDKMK", "experiment": "SPR, Biacore T200, protein-A capture of the antibody, 25° C., 1:1 Langmuir fit", "procedure": "All antibodies were diluted into running buffer to yield equivalent capture levels. The injection time was set to 180 s and dissociation was recorded for 600 s. The protein-A surface was regenerated by a 30 s pulse with 30 mM HCI. For the antibody buffer injections were used for double referencing. Values for the KD of the antibody were calculated according to the curve-fitting methodology for a simple binding model (1:1 Langmuir)."}, "[2]": {"target": "AMA-1 of Plasmodium falciparum strain K1, on parasites (Plasmodium falciparum (strain K1))", "experiment": "cell-based or functional assay"}, "[3]": {"target": "AMA-1 of Plasmodium falciparum strain HB3, on parasites (Plasmodium falciparum (strain HB3))", "experiment": "cell-based or functional assay"}, "[4]": {"target": "AMA-1 of Plasmodium falciparum strain FCR3, on parasites (Plasmodium falciparum (strain FCR3))", "experiment": "cell-based or functional assay"}, "[5]": {"target": "T2, AMA-1 of Plasmodium falciparum strain 3D7, on parasites (schizonts/merozoites) (Plasmodium falciparum (strain 3D7), UniProt P22621 25-622)", "T2 chain": "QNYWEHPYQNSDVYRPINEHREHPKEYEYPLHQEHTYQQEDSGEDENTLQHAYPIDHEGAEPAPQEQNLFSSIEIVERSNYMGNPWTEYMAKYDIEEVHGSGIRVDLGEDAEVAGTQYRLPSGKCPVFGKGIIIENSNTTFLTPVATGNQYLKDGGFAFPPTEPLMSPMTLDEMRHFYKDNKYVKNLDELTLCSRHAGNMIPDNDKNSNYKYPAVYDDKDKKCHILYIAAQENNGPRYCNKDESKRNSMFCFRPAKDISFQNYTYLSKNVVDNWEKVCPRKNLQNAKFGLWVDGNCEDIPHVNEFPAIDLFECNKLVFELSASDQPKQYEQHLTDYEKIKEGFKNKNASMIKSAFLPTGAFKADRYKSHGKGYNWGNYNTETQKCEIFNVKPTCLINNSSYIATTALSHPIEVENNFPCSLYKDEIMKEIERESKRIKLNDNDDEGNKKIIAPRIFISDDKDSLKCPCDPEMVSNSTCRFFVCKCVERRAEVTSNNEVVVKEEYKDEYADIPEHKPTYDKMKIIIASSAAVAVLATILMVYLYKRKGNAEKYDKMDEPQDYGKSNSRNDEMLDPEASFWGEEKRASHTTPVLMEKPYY", "experiment": "cell-based or functional assay"}, "[6]": {"target": "T2, AMA-1 of Plasmodium falciparum strain …", "experiment": "cell-based or functional assay"}}, "note": "Where two headings read alike, the source gives them in different places.", "data": [{"binder": "B1", "values": [{"measurement": "Kd", "setting": "[1]", "result": 0.188, "unit": "nM"}, {"measurement": "koff", "setting": "[1]", "result": 0.000131, "unit": "s⁻¹"}, {"measurement": "kon", "setting": "[1]", "result": 698000, "unit": "M⁻¹ s⁻¹"}, {"measurement": "IC50 [µg/ml], growth inhibition assay (GIA), strain K1", "setting": "[2]", "result": 113, "unit": "µg/mL"}, {"measurement": "IC50 [µg/ml], growth inhibition assay (GIA), strain HB3", "setting": "[3]", "result": 115, "unit": "µg/mL"}, {"measurement": "IC50 [µg/ml], growth inhibition assay (GIA), strain FCR3", "setting": "[4]", "result": 230, "unit": "µg/mL"}, {"measurement": "IC50 [µg/ml], growth inhibition assay (GIA), strain 3D7", "setting": "[5]", "result": 32, "unit": "µg/mL"}, {"measurement": "IC50 [µg/ml], growth inhibition assay (GIA), strain 3D7", "setting": "[6]", "result": 32, "unit": "µg/mL"}]}]}
